Patent US20050123549A1 (IMMUNOGEN, published 2005)

Legend:
[1] = molecular target: T1, Muc1 mucin carrying the CA6 sialoglycotope (human, UniProt P15941 24-1255, sialylated O-linked carbohydrate carrying the CA6 epitope; positions not stated); experiment: flow cytometry on KB cells, apparent Kd
T1 construct: whole, on cells; Target of DS6 on CA6-positive human cell lines (flow cytometry) and in their lysates (dot blots, immunoprecipitation); also called CA6 antigen; DS6 antigen

[2] = molecular target: T1, Muc1 mucin carrying the CA6 …; experiment: flow cytometry on HeLa cells, apparent Kd
[3] = molecular target: T1, Muc1 mucin carrying the CA6 …; experiment: cell-based or functional assay
[4] = molecular target: T1, Muc1 mucin carrying the CA6 …; experiment: flow cytometry on HeLa cells, apparent Kd; remark: listed apart in the source
[5] = molecular target: T1, Muc1 mucin carrying the CA6 …; experiment: flow cytometry on T-47D cells, apparent Kd
Experimental: (§1) Cells ([…]) were incubated, on ice for 3-4 h, with serially diluted concentrations of the DS6 antibody prepared in FACS buffer (2% goat serum, RPMI) into 96-well plates. The cells were spun down in a table top centrifuge at 1500 rpm for 5 min at 4° C. After removing the media, the wells were then refilled with 150 μl of FACS buffer. The wash step was then repeated. FITC-labeled goat anti-mouse IgG (Jackson Immunoresearch) was diluted 1:100 to FACS buffer and incubated with the cells for 1 h on ice. The plate was covered in foil to prevent photobleaching of the signal. After two washes, the cells were fixed with 1% formaldehyde and analyzed on a flow cytometer.

[6] = molecular target: T1, Muc1 mucin carrying the CA6 …; experiment: flow cytometry on OVCAR5 cells, apparent Kd
Experimental: (§2) Human cell lines were obtained from the American Type Culture Collection (ATCC) with the exception of OVCAR5 (Kearse et al., Int. J. Cancer 88(6):866-872 (2000)), OVCAR8 and IGROV1 cells (M. Seiden, Massachusetts General Hospital). All cells were grown in RPMI 1640 supplemented with 4 mM L-glutamine, 50 U/ml penicillin, 50 μg/ml streptomycin (Cambrex Bio Science, Rockland, Me.) and 10% v/v fetal bovine serum (Atlas Biologicals, Fort Collins, Colo.), referred hereafter as culture media. Cells were maintained in a 37° C., 5% CO₂ humidified incubator.
as §1

[7] = molecular target: T1, Muc1 mucin carrying the CA6 …; experiment: flow cytometry on Caov-4 cells, apparent Kd
Experimental: as §1

[8] = molecular target: T1, Muc1 mucin carrying the CA6 …; experiment: flow cytometry on HPAF-II cells, apparent Kd
Experimental: as §2, §1

[9] = molecular target: T1, Muc1 mucin carrying the CA6 …; experiment: flow cytometry on HPAC cells, apparent Kd
Experimental: as §1

[10] = molecular target: T1, Muc1 mucin carrying the CA6 …; experiment: flow cytometry on Caov-3 cells, apparent Kd
[11] = molecular target: T1, Muc1 mucin carrying the CA6 …; experiment: flow cytometry on Caov-3 cells, FITC anti-mouse IgG
Experimental: The fluorescence of cell lines incubated with the DS6 primary antibody and FITC conjugated anti-mouse IgG(H+L) secondary antibodies was measured by flow cytometry.
as §1

[12] = molecular target: T1, Muc1 mucin carrying the CA6 …; experiment: flow cytometry on BxPC-3 cells, apparent Kd
Experimental: as §2, §1

[13] = molecular target: T1, Muc1 mucin carrying the CA6 …; experiment: flow cytometry on WISH cells, apparent Kd
Experimental: as §2, §1

[14] = molecular target: T1, Muc1 mucin carrying the CA6 …; experiment: flow cytometry on T-47D cells, apparent Kd; remark: listed apart in the source
Experimental: as §2, §1

[15] = molecular target: T1, Muc1 mucin carrying the CA6 …; experiment: flow cytometry on BT-20 cells, apparent Kd
Experimental: as §2, §1

[16] = molecular target: T1, Muc1 mucin carrying the CA6 …; experiment: flow cytometry on MCF-7 cells, apparent Kd
Experimental: as §2, §1

[17] = molecular target: T1, Muc1 mucin carrying the CA6 …; experiment: flow cytometry on HeLa cells, apparent Kd; remark: listed apart in the source
Experimental: as §1

[18] = molecular target: T1, Muc1 mucin carrying the CA6 …; experiment: flow cytometry on ZR-75-1 cells, apparent Kd
[19] = molecular target: T1, Muc1 mucin carrying the CA6 …; experiment: flow cytometry on BT-549 cells, apparent Kd
Experimental: as §2, §1

[20] = molecular target: T1, Muc1 mucin carrying the CA6 …; experiment: flow cytometry on BT-483 cells, apparent Kd
Experimental: as §1

[21] = molecular target: T1, Muc1 mucin carrying the CA6 …; experiment: flow cytometry on TOV-21G cells, apparent Kd
Experimental: as §2, §1

B1: murine DS6 anti-CA6 monoclonal antibody (antibody, IgG1, V domains shown)
VH: QAYLQQSGAELVRSGASVKMSCKASGYTFTSYNMHWVKQTPGQGLEWIGYIYPGNGATNYNQKFKGKATLTADPSSSTAYMQISSLTSEDSAVYFCARGDSVPFAYWGQGTLVTVSA
VL: QIVLTQSPAIMSASPGEKVTITCSAHSSVSFMHWFQQKPGTSPKLWIYSTSSLASGVPARFGGSGSGTSYSLTISRMEAEDAATYYCQQRSSFPLTFGAGTKLELKR
notes: Whole murine monoclonal IgG from the DS6 hybridoma (ATCC PTA-4449); the 3' heavy chain cloning primer was BamIgG1 and the light chain primer was kappa; also called DS6 antibody; muDS6
- Kd [1]: 1.11 nM
- Kd [2]: 0.694 nM
- indirect cell viability assay, DS6 with anti-mouse IgG (H+L) DM1 conjugate, Caov-3 cells, IC50 [3]: 0.425 nM
- Kd [4]: 0.694 nM
- Kd [5]: 3.42 nM
- Kd [6]: 1.47 nM
- Kd [7]: 4.04 nM
- Kd [8]: 2.81 nM
- Kd [9]: 23.5 nM
- Kd [10]: 5.48 nM
- Kd [11]: 1.85 nM
- Kd [12]: 5.26 nM
- Kd [13]: 2.38 nM
- Kd [14]: 3.42 nM
- Kd [15]: 0.914 nM
- Kd [16]: 2.89 nM
- Kd [17]: 0.694 nM
- Kd [18]: 4.3 nM
- Kd [19]: 1.05 nM
- Kd [20]: 13.7 nM
- Kd [21]: 0.307 nM
